Assay results taken from paper PMC3017110.

T1: QK RNA-binding domain (recombinant, purified) (UniProt Q9QYS9 1-213)
T1 sequence: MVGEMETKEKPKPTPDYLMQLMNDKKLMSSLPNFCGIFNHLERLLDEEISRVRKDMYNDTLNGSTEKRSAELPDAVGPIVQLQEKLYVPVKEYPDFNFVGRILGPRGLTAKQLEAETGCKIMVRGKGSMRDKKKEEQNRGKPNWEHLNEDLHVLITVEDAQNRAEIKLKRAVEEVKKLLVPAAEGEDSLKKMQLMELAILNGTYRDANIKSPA


Legend:
[1] = molecular target: T1, QK RNA-binding domain (recombinant, …); assay: EMSA and fluorescence polarization; apparent Kd; EMSA on non-denaturing 5% polyacrylamide slab gel in 1x TBE; binding buffer, salt, pH and temperature not printed (per ref 64)
[2] = molecular target: T1, QK RNA-binding domain (recombinant, …); assay: EMSA; three fragments; does not bind with high affinity; EMSA on non-denaturing 5% polyacrylamide slab gel in 1x TBE; binding buffer, salt, pH and temperature not printed (per ref 64)
[3] = molecular target: T1, QK RNA-binding domain (recombinant, …); assay: competition; competes with Mbp QSBE; Kc,app value only in figure; EMSA on non-denaturing 5% polyacrylamide slab gel in 1x TBE; binding buffer, salt, pH and temperature not printed (per ref 64)

| Binder | Kd [1] [nM] | further results |
| --- | --- | --- |
| CAGUGCCCAUUGGUACACACUAACCUCG (ssRNA) [Mbp QSBE] | 44 ± 2 |  |
| GCUCAUUCUUUGGAGCGGGUGUGUCAUU (ssRNA) [Plp1 ESE fragments (three overlapping)] |  | binding result [2]: no binding |
| UGUGACUAAUUG (ssRNA) [Hnrnpa1 12-nt RNA competitor] |  | binding result [3]: binds |
| AACUCCAGGACUGUAUUUGUGACUAAUUGU (ssRNA) [Hnrnpa1 3' UTR QSBE WT, 30 nt] | 36 ± 2 |  |
